T1: cynomolgus monkey CD3 epsilon chain (CD3ε) (cynomolgus monkey (Macaca fascicularis), UniProt Q95LI5 22-198)
T1 chain: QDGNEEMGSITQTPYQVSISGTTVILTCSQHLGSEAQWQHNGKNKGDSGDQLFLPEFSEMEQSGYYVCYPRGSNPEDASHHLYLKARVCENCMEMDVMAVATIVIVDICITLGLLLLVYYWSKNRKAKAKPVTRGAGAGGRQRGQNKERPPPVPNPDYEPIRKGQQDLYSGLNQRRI


Legend:
[1] = biological target: T2, human CD3 epsilon chain (CD3ε) (human, UniProt P07766 22-207); experiment: FACS on isolated human T cells; FITC anti-human light chain secondary
T2 construct: also called CD3ε on human T cells; human CD3ε
Description: (§1) The heterodimeric bispecific antibodies described in Example 1 were produced in HEK 293 cells and were assayed by fluorescence activated cell sorting (FACS) for binding to T cells, which express CD3ε, and to a human ovarian cancer cell line, Ovcar-8, which expresses mesothelin. Briefly, the heterodimeric bispecific antibodies were incubated with about 50,000 Ovcar-8 cells or isolated human or cynomolgus monkey T cells at 4° C. for one hour. The cells were then washed and stained with a fluorescein isothiocyanate (FITC)-conjugated anti-human light chain secondary antibody and analyzed by flow cytometry. The relative binding was represented by the geometric mean of fluorescence intensity.

[2] = biological target: T1, cynomolgus monkey CD3 epsilon chain …; experiment: cell-based or functional assay
[3] = biological target: T1, cynomolgus monkey CD3 epsilon chain …; experiment: FACS on isolated cynomolgus monkey T cells; FITC anti-human light chain secondary
Description: as §1

T2 sequence (P07766 22-207 limits assumed): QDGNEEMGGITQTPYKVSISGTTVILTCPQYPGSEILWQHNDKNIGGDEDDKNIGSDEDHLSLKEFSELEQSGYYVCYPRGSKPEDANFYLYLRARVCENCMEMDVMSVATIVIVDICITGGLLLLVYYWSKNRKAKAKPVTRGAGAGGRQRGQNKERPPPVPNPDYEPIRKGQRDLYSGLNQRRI

Binder | FACS binding (geometric mean) [1] | Cyno TDCC EC50 (pM), Ovcar-8 target cells with cynomolgus monkey T cells [2] | FACS binding (geometric mean) [3] | Cyno TDCC Max killing (%), Ovcar-8 target cells with cynomolgus monkey T cells [2]
P57216.9 (anti-MSLN/CD3ε heterodimeric bispecific antibody) (bispecific antibody) chain 1: QVQLQESGPGLVKPSQTLSLTCTVSGGSINNNNYYWTWIRQHPGKGLEWIGYIYYSGSTFYNPSLKSRVTISVDTSKTQFSLKLSSVTAADTAVYYCAREDTMTGLDVWGQGTLVTVSSASTKGPEVQLVESGGGLVKPGVSLRLSCAASGFTFSRYSMNWVRQAPGKGLEWVSSISSSGTYIKYADSVKGRFTISRDNAKNSLNLQMNSLRAEDTAVYYCARDRDRYPLDYWGQGTLVTVSSASTKGPSVFPLAPCSRSTSESTAALGCLVKDYFPEPVTVSWNSGALTSGVHTFPAVLQSSGLYSLSSVVTVPSSNFGTQTYTCNVDHKPSNTKVDKTVGGGGSAAAVPRDLEVVAATPTSLLISWDAPHHGVAYYRITYGETGGNSPVQEFTVPGSKSTATISGLKPGVDYTINVYAVLAYPRGYPLSKPISINYRTDYKDDDDKGSSHHHHHH chain 2: DIQMTQSPSSLSASVGDRVTITCRASQSINNYLNWYQQKPGKAPTLLIYAASSLQSGVPSRFSGSRSGTDFTLTISSLQPEDFAAYFCQQTYSNPTFGQGTKVEVKRTVAAPSSYELTQPPSVSVSPGQTARITCSGDALPKKYAYWYQQKSGQAPVLVIYEATKRPSGIPERFSGSSSGTMATLTLSGAQVEDEADYYCYSTDSTNYHWVFGGGTKLTVLGQPKAAPSVTLFPPSSEELQANKATLVCLISDFYPGAVTVAWKADSSPVKAGVETTTPSKQSNNKYAASSYLSLTPEQWKSHRSYSCQVTHEGSTVEKTVAPTECS | 103 geometric mean of fluorescence intensity | – | – | –
P69059.3 (anti-MSLN/CD3ε heterodimeric bispecific antibody) (bispecific antibody, VL(MSLN)-linker-VH(CD3ε)-CL) chain 1: SYELTQPPSVSVSPGQTARITCSGDALPKKYAYWYQQKSGQAPVLVIYEATKRPSGIPERFSGSSSGTMATLTLSGAQVEDEADYYCYSTDSTNYHWVFGGGTKLTVLGGGGGSGGGGSQVQLQESGPGLVKPSQTLSLTCTVSGGSINNNNYYWTWIRQHPGKGLEWIGYIYYSGSTFYNPSLKSRVTISVDTSKTQFSLKLSSVTAADTAVYYCAREDTMTGLDVWGQGTTVTVSSASTKGPSVFPLAPCSRSTSESTAALGCLVKDYFPEPVTVSWNSGALTSGVHTFPAVLQSSGLYSLSSVVTVPSSNFGTQTYTCNVDHKPSNTKVDKTVGGGGSAAAVPRDLEVVAATPTSLLISWDAPHHGVAYYRITYGETGGNSPVQEFTVPGSKSTATISGLKPGVDYTINVYAVLAYPRGYPLSKPISINYRTDYKDDDDKGSSHHHHHH chain 2: DIQMTQSPSSLSASVGDRVTITCRASQSINNYLNWYQQKPGKAPTLLIYAASSLQSGVPSRFSGSRSGTDFTLTISSLQPEDFAAYFCQQTYSNPTFGQGTKVEVKGGGGSGGGGSEVQLVESGGGLVKPGVSLRLSCAASGFTFSRYSMNWVRQAPGKGLEWVSSISSSGTYIKYADSVKGRFTISRDNAKNSLNLQMNSLRAEDTAVYYCARDRDRYPLDYWGQGTLVTVSSRTVAAPSVFIFPPSDEQLKSGTASVVCLLNNFYPREAKVQWKVDNALQSGNSQESVTEQDSKDSTYSLSSTLTLSKADYEKHKVYACEVTHQGLSSPVTKSFNRGEC | 179 geometric mean of fluorescence intensity | – | – | –
P69058.3 (anti-MSLN/CD3ε heterodimeric bispecific antibody) (bispecific antibody, VH(CD3ε)-linker-VL(MSLN)-CL) chain 1: QVQLQESGPGLVKPSQTLSLTCTVSGGSINNNNYYWTWIRQHPGKGLEWIGYIYYSGSTFYNPSLKSRVTISVDTSKTQFSLKLSSVTAADTAVYYCAREDTMTGLDVWGQGTLVTVSSGGGGSGGGGSSSYELTQPPSVSVSPGQTARITCSGDALPKKYAYWYQQKSGQAPVLVIYEATKRPSGIPERFSGSSSGTMATLTLSGAQVEDEADYYCYSTDSTNYHWVFGGGTKLTVLGASTKGPSVFPLAPCSRSTSESTAALGCLVKDYFPEPVTVSWNSGALTSGVHTFPAVLQSSGLYSLSSVVTVPSSNFGTQTYTCNVDHKPSNTKVDKTVGGGGSAAAVPRDLEVVAATPTSLLISWDAPHHGVAYYRITYGETGGNSPVQEFTVPGSKSTATISGLKPGVDYTINVYAVLAYPRGYPLSKPISINYRTDYKDDDDKGSSHHHHHH chain 2: EVQLVESGGGLVKPGVSLRLSCAASGFTFSRYGMNWVRQAPGKGLEWVSSISSSGTYIKYADSVKGRFTISRDNAKNSLNLQMNSLRAEDTAVYYCARDRDRYPLDYWGQGTLVTVSSGGGGSGGGGSDIQMTQSPSSLSASVGDRVTITCRASQSINNYLNWYQQKPGKAPTLLIYAASSLQSGVPSRFSGSRSGTDFTLTISSLQPEDFAAYFCQQTYSNPTFGQGTKVEVKRTVAAPSVFIFPPSDEQLKSGTASVVCLLNNFYPREAKVQWKVDNALQSGNSQESVTEQDSKDSTYSLSSTLTLSKADYEKHKVYACEVTHQGLSSPVTKSFNRGEC | 290 geometric mean of fluorescence intensity | – | – | –

The next lines start with results.

FACS binding (geometric mean) [1] | Cyno TDCC EC50 (pM), Ovcar-8 target cells with cynomolgus monkey T cells [2] | FACS binding (geometric mean) [3] | Binder | Cyno TDCC Max killing (%), Ovcar-8 target cells with cynomolgus monkey T cells [2]
354 geometric mean of fluorescence intensity | – | – | H71362.2 (anti-MSLN/CD3ε heterodimeric bispecific antibody) (bispecific antibody) chain 1: EVQLVESGGGLVKPGVSLRLSCAASGFTFSRYGMNWVRQAPGKGLEWVSSISSSGTYIKYADSVKGRFTISRDNAKNSLNLQMNSLRAEDTAVYYCARDRDRYPLDYWGQGTLVTVSSASTKGPQVQLQESGPGLVKPSETLSLTCTVSGGSIISHYWSWIRQPPGKGLEWIGYIYYSGSTNYNPSLKSRVTISVDTSKNQFSLKLTSVTAADTAVYYCARDGWSAFDYWGQGTLVTVSSASTKGPSVFPLAPCSRSTSESTAALGCLVKDYFPEPVTVSWNSGALTSGVHTFPAVLQSSGLYSLSSVVTVPSSNFGTQTYTCNVDHKPSNTKVDKTVGGGGSAAAVPRDLEVVAATPTSLLISWDAIGLYPYYYRITYGETGGNSPVQEFTVPGSKSTATISGLKPGVDYTITVYAVSGIFGWNNSKPISINYRTGSSDYKDDDDKGSSHHHHHH chain 2: SYELTQPPSVSVSPGQTARITCSGDALPKKYAYWYQQKSGQAPVLVIYEATKRPSGIPERFSGSSSGTMATLTLSGAQVEDEADYYCYSTDSTNYHWVFGGGTKLTVLGTVAAPDIQMTQSPSSLSASVGDRVTITCRASQGIRNALGWYQQKPGKAPKRLIYAASSLQSGVPSRFSGSGSGTEFTLTISSLQPEDFATYYCLQHNSYPRTFGQGTKVEIRRTVAAPSVFIFPPSDEQLKSGTASVVCLLNNFYPREAKVQWKVDNALQSGNSQESVTEQDSKDSTYSLSSTLTLSKADYEKHKVYACEVTHQGLSSPVTKSFNRGEC | –
9 geometric mean of fluorescence intensity | 3 pM | 127 geometric mean of fluorescence intensity | H69070.4 (anti-MSLN/CD3ε heterodimeric bispecific antibody) (bispecific antibody) chain 1: QVQLVESGGGVVQPGRSLRLSCAASGFTFSSYGMHWVRQAPGKGLEWVAVISYPGNTKYYADSVKGRFTISRDNSKNTLYLQMNSLRAEDTAVYFCARDQKEWRLIFDYWGQGTLVTVSSASTKGPQVQLQESGPGLVKPSETLSLTCTVSGGSIISHYWSWIRQPPGKGLEWIGYIYYSGSTNYNPSLKSRVTISVDTSKNQFSLKLTSVTAADTAVYYCARDGWSAFDYWGQGTLVTVSSASTKGPSVFPLAPCSRSTSESTAALGCLVKDYFPEPVTVSWNSGALTSGVHTFPAVLQSSGLYSLSSVVTVPSSNFGTQTYTCNVDHKPSNTKVDKTVGGGGSAAAVPRDLEVVAATPTSLLISWDAPHHGVAYYRITYGETGGNSPVQEFTVPGSKSTATISGLKPGVDYTINVYAVLAYPRGYPLSKPISINYRTDYKDDDDKGSSHHHHHH chain 2: DIQMTQSPSSVSASVGDRVTITCRASQGISSWLAWYQQKPGKAPKLLIYAASSLQSGVPSRFSGSGSGAAFTLTISSLQPEDFATYFCQQANSFPLTFAGGTKVDIKRTVAAPDIQMTQSPSSLSASVGDRVTITCRASQGIRNALGWYQQKPGKAPKRLIYAASSLQSGVPSRFSGSGSGTEFTLTISSLQPEDFATYYCLQHNSYPRTFGQGTKVEIRRTVAAPSVFIFPPSDEQLKSGTASVVCLLNNFYPREAKVQWKVDNALQSGNSQESVTEQDSKDSTYSLSSTLTLSKADYEKHKVYACEVTHQGLSSPVTKSFNRGEC | 88%
16 geometric mean of fluorescence intensity | 3.2 pM | 121 geometric mean of fluorescence intensity | H69071.4 (anti-MSLN/CD3ε heterodimeric bispecific antibody) (bispecific antibody) chain 1: QVQLQESGPGLVKPSQTLSLTCTVSGGSINNNNYYWTWIRQHPGKGLEWIGYIYYSGSTFYNPSLKSRVTISVDTSKTQFSLKLSSVTAADTAVYYCAREDTMTGLDVWGQGTLVTVSSGGGGSGGGGSDIQMTQSPSSVSASVGDRVTITCRASQGISSWLAWYQQKPGKAPKLLIYAASSLQSGVPSRFSGSGSGAAFTLTISSLQPEDFATYFCQQANSFPLTFAGGTKVDIKRASTKGPSVFPLAPCSRSTSESTAALGCLVKDYFPEPVTVSWNSGALTSGVHTFPAVLQSSGLYSLSSVVTVPSSNFGTQTYTCNVDHKPSNTKVDKTVGGGGSAAAVPRDLEVVAATPTSLLISWDAPHHGVAYYRITYGETGGNSPVQEFTVPGSKSTATISGLKPGVDYTINVYAVLAYPRGYPLSKPISINYRTDYKDDDDKGSSHHHHHH chain 2: QVQLVESGGGVVQPGRSLRLSCAASGFTFSSYGMHWVRQAPGKGLEWVAVISYPGNTKYYADSVKGRFTISRDNSKNTLYLQMNSLRAEDTAVYFCARDQKEWRLIFDYWGQGTLVTVSSGGGGSGGGGSDIQMTQSPSSLSASVGDRVTITCRASQSINNYLNWYQQKPGKAPTLLIYAASSLQSGVPSRFSGSRSGTDFTLTISSLQPEDFAAYFCQQTYSNPTFGQGTKVEVKRTVAAPSVFIFPPSDEQLKSGTASVVCLLNNFYPREAKVQWKVDNALQSGNSQESVTEQDSKDSTYSLSSTLTLSKADYEKHKVYACEVTHQGLSSPVTKSFNRGEC | 88%

— patent publication US20160115241A1 (Amgen, published 2016)
